In the experiment the target is T1, c-Jun residues 1-104 (Rattus norvegicus (Rat), UniProt P17325 1-101, labeled with 35S by in vitro translation).
T1 construct: In vitro translated fragment; also called N-terminal region of c-Jun
T1 sequence: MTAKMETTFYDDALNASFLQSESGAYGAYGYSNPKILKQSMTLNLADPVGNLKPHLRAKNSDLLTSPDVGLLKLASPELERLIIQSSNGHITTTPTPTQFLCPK
Description: GST pull-down of 35S-labeled in vitro translated c-Jun fragment.

B1: GST-Stat3 (1-154) (other)
chain: MAQWNQLQQLDTRYLKQLHQLYSDTFPMELRQFLAPWIESQDWAYAASKESHATLVFHNLLGEIDQQYSRFLQESNVLYQHNLRRIKQFLQSRYLEKPMEIARIVARCLWEESRLLQTAATAAQQGGQANHPTAAVVTEKQQMLEQHLQDVRKR
notes: GST is placed N-terminal because of the pGEX vector; not shown: Glutathione S-transferase (GST) fusion partner of vector pGEX-5X-1 (Pharmacia)
For B1, the binding result is “no binding”.
